What all share (details): both partners purified
Test [1] deals with T1, NOT10:GST-NOT11 complex (Hs NOT10-L with GST-NOT11-C) (human, UniProt Q9H9A5 25-707; Q9UKZ1 257-498).
T1 construct: human NOT10 (CNOT10), NOT10-L, residues D25–Q707, from pnYC-vM with a TEV-cleavable MBP tag; human NOT11 (CNOT11), NOT11-C, residues D257–D498; also called NOT10:NOT11 heterodimer; source: E. coli BL21 (DE3) Star, co-expressed, purified (glutathione agarose, TEV cleavage of MBP, HiTrap Heparin, Superdex 200); not shown: MBP, N-terminal, cleaved; GST, N-terminal, kept
T1 sequence (Q9H9A5 25-707, chain 1 of 2, other chains not shown): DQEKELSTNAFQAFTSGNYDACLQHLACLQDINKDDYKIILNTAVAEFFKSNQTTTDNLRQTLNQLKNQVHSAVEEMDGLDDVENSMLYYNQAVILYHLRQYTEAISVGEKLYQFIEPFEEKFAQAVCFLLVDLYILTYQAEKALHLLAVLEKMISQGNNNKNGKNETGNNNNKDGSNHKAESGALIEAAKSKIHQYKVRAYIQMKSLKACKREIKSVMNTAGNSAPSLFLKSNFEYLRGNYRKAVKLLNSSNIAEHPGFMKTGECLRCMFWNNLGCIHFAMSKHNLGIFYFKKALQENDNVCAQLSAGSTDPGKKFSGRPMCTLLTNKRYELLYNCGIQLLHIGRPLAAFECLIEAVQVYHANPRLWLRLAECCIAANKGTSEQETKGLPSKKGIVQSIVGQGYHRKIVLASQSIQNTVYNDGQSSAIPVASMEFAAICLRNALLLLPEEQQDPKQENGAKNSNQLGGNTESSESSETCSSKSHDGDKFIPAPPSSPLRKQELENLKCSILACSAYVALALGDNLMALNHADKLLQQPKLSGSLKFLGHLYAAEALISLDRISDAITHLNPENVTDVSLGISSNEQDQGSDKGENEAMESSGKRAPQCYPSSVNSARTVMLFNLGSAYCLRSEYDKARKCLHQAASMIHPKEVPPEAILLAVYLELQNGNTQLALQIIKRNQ
Kind of test: pull-down; purified proteins; GST-NOT11-C alone or the NOT10:GST-NOT11 complex as bait, NOT1-N as prey (Fig. 3g).

For test [2], the target named is T2, MBP-Hs NOT10-C (residues T351–Q707) (human, UniProt Q9H9A5 351-707).
T2 construct: human NOT10 (CNOT10), residues T351–Q707; The MBP tag is HRV3C-cleavable; no cleavage step is described; also called C-terminal portion of NOT10; source: E. coli BL21 (DE3) Star, purified (amylose resin, HiTrap Q, Superdex 200)
T2 sequence (Q9H9A5 351-707): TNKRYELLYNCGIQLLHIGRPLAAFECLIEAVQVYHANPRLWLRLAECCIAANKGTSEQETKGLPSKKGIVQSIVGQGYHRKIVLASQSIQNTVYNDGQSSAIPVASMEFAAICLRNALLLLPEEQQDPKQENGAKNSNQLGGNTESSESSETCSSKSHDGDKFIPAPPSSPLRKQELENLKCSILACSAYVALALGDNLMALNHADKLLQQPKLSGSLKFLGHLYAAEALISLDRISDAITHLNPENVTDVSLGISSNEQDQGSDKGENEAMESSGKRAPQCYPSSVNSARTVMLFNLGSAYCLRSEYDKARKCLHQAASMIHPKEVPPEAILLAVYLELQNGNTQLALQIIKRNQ
As to the kind of experiment: pull-down; GST pulldown with recombinant proteins; GST-NOT11 constructs as bait, MBP-tagged NOT10 constructs as prey (Fig. 3b–f; human and Drosophila).

Test [3] deals with T3, MBP-Hs NOT10-L (residues D25–Q707) (human, UniProt Q9H9A5 25-707).
T3 construct: human NOT10 (CNOT10), residues D25–Q707; The MBP tag is HRV3C-cleavable (plasmid pnYC-pM); no cleavage step is described; also called isolated NOT10; source: E. coli BL21 (DE3) Star, purified (amylose resin, HiTrap Q, Superdex 200)
T3 sequence (Q9H9A5 25-707): as the sequence (Q9H9A5 25-707, chain 1 of 2, other chains not shown) above
Described as above.

B1: Hs NOT1-N (residues D4–N682) (domain or fragment, human, UniProt A5YKK6 4-682, looked up)
chain: DSLSLALSQISYLVDNLTKKNYRASQQEIQHIVNRHGPEADRHLLRCLFSHVDFSGDGKSSGKDFHQTQFLIQECALLITKPNFISTLSYAIDNPLHYQKSLKPAPHLFAQLSKVLKLSKVQEVIFGLALLNSSSSDLRGFAAQFIKQKLPDLLRSYIDADVSGNQEGGFQDIAIEVLHLLLSHLLFGQKGAFGVGQEQIDAFLKTLRRDFPQERCPVVLAPLLYPEKRDILMDRILPDSGGVAKTMMESSLADFMQEVGYGFCASIEECRNIIVQFGVREVTAAQVARVLGMMARTHSGLTDGIPLQSISAPGSGIWSDGKDKSDGAQAHTWNVEVLIDVLKELNPSLNFKEVTYELDHPGFQIRDSKGLHNVVYGIQRGLGMEVFPVDLIYRPWKHAEGQLSFIQHSLINPEIFCFADYPCHTVATDILKAPPEDDNREIATWKSLDLIESLLRLAEVGQYEQVKQLFSFPIKHCPDMLVLALLQINTSWHTLRHELISTLMPIFLGNHPNSAIILHYAWHGQGQSPSIRQLIMHAMAEWYMRGEQYDQAKLSRILDVAQDLKALSMLLNGTPFAFVIDLAALASRREYLKLDKWLTDKIREHGEPFIQACMTFLKRRCPSILGGLAPEKDQPKSAQLPPETLATMLACLQACAGSVSQELSETILTMVANCSNVMN
notes: human NOT1 (CNOT1), residues D4–N682; The purification of NOT1-N is not described; source: E. coli BL21 (DE3) Star, purified
With B1, the binding result in test [1] is reported as “binds”.

B2: GST-Hs NOT11-C (residues D257–D498) (domain or fragment)
chain: not shown
notes: human NOT11 (CNOT11), residues D257–D498; The GST tag is HRV3C-cleavable (plasmid pnEA-pG); also called GST-NOT11-C; NOT11 construct lacking the NOT11N domain; source: E. coli BL21 (DE3) Star, purified (glutathione agarose, HiTrap Q, Superdex 200); not shown: GST, N-terminal, kept
Consider B2, for which the binding result in test [2] and in test [3] was “binds” throughout.

These data come from article PMC10352241, “Structure and assembly of the NOT10:11 module of the CCR4-NOT complex” (Communications Biology, 2023).
